Like-named read-outs stand apart in the source and are kept apart here.
Assays:
Pum-HD [1] = target: T1, Pum-HD (Drosophila melanogaster, UniProt P25822 1093-1426); test: ITC
T1 sequence: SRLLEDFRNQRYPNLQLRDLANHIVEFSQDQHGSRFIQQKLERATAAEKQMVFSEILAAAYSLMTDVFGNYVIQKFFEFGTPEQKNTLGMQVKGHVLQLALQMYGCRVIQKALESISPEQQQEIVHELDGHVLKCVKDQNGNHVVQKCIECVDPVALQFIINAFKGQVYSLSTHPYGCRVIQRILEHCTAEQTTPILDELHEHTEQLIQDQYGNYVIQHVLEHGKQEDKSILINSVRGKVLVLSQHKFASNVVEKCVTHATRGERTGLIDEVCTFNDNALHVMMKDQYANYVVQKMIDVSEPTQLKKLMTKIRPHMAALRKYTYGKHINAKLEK

Pum-HD [2] = target: T1, Pum-HD; test: ITC; remark: listed apart in the source
[3] = target: T2, HD domain of Pumilio (Pum-HD) (Drosophila, UniProt P25822 1093-1426); test: SEC + SEC-MALS
T2 sequence (looked up): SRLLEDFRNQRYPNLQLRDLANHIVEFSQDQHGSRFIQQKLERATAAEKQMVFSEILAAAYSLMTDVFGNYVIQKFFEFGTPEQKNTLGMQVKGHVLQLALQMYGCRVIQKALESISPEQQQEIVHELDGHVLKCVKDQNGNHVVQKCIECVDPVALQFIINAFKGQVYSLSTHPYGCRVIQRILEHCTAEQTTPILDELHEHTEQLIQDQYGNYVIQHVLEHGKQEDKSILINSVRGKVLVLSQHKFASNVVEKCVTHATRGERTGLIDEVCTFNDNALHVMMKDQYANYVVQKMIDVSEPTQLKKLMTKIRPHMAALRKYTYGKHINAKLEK

Pum-HD [4] = target: T1, Pum-HD; test: ITC; remark: listed apart in the source
Brat-NHL [5] = target: T3, Brat-NHL (Drosophila melanogaster, UniProt Q8MQJ9 756-1037); test: ITC
T3 sequence: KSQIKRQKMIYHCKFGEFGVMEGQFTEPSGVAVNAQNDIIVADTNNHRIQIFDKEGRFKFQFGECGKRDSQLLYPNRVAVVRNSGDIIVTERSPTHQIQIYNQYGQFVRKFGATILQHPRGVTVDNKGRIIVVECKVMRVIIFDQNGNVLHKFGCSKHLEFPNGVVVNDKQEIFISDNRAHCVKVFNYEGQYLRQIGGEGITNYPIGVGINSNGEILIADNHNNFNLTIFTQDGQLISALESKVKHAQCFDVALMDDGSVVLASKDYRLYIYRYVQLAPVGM

Brat-NHL [6] = target: T3, Brat-NHL; test: ITC; remark: listed apart in the source
Brat-NHL [7] = target: T3, Brat-NHL; test: ITC; remark: listed apart in the source
Pum-HD [8] = target: T1, Pum-HD; test: ITC; remark: listed apart in the source
Brat-NHL [9] = target: T3, Brat-NHL; test: ITC; remark: listed apart in the source
[10] = target: T4, Pum-HD;Brat-NHL;Nanos-ZnF (Drosophila melanogaster;Drosophila …, UniProt P25822;Q8MQJ9;P25724 1093-1426;756-1037;301-392, ||); test: SEC-MALLS, NMR, SAXS/SANS
T4 sequence 1: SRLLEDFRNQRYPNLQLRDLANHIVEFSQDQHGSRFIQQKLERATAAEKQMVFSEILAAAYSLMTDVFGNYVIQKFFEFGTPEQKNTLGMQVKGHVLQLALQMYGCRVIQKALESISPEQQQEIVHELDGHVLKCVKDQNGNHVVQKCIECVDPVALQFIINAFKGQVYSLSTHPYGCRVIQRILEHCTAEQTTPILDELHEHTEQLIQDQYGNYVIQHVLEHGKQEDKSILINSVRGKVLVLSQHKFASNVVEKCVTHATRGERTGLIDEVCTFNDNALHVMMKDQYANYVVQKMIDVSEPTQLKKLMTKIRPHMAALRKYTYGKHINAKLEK
T4 sequence 2: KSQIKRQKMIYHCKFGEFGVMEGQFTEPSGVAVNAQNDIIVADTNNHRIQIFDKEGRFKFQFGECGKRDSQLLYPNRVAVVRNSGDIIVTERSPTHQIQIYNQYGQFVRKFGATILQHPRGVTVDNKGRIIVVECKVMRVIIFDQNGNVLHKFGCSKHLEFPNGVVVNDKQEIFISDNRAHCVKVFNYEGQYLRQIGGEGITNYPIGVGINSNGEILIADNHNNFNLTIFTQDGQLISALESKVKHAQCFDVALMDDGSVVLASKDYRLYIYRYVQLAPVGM
T4 sequence 3: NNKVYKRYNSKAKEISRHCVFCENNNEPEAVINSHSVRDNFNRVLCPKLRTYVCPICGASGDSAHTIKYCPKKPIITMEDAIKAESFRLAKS

Brat-NHL [11] = target: T3, Brat-NHL; test: ITC; remark: listed apart in the source
Brat-NHL [12] = target: T3, Brat-NHL; test: ITC; remark: listed apart in the source
Nanos-ZnF = target: T5, Nanos-ZnF (Drosophila melanogaster, UniProt P25724 301-392); test: ITC
T5 sequence: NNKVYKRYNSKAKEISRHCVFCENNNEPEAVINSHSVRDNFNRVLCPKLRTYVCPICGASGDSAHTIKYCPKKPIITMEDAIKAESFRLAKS

Pum-HD [13] = target: T1, Pum-HD; test: ITC; remark: listed apart in the source
Pum-HD [14] = target: T1, Pum-HD; test: ITC; remark: listed apart in the source
Pum-HD [15] = target: T1, Pum-HD; test: ITC; remark: listed apart in the source
Pum-HD [16] = target: T1, Pum-HD; test: ITC; remark: listed apart in the source

UUGUUGUCGAAAAU (ssRNA) [NRE2 minus BoxB] gave a Kd (Pum-HD [1]) of 1200 ± 80 nM and a Kd (Pum-HD [2]) of 1000 ± 20 nM.

B1: ZnF domain of Nanos (Nanos-ZnF) (domain or fragment, Drosophila, UniProt P25724 301-392, looked up)
chain: NNKVYKRYNSKAKEISRHCVFCENNNEPEAVINSHSVRDNFNRVLCPKLRTYVCPICGASGDSAHTIKYCPKKPIITMEDAIKAESFRLAKS
For B1, the “stoichiometry N” value [3] was 1.

With UUGUUG (ssRNA) [BoxA] the binding result (Pum-HD [4]) was “no binding”, the Kd (Brat-NHL [5]) was 1100 ± 300 nM and the Kd (Brat-NHL [6]) was 1000 ± 300 nM. It also gave a Kd (Brat-NHL [7]) of 800 ± 200 nM.

In the case of UUGUUGUCGAAAAUUGUACAUAA (structured_RNA) [NRE2 (23-mer)], the Kd (Pum-HD [8]) is reported as 2 nM, the Kd (Brat-NHL [5]) is reported as 370 ± 100 nM and the Kd (Brat-NHL [9]) is reported as 1400 nM. The Kd (Brat-NHL [6]) was 320 ± 100 nM, the binding result [10] was “binds” and the Kd (Brat-NHL [11]) was 200 nM. For the same binder, the Kd (Brat-NHL [7]) was 1200 ± 200 nM, the Kd (Brat-NHL [12]) was 900 nM and the binding result (Nanos-ZnF) was “no binding”. For the same binder, the Kd (Pum-HD [13]) was 15 nM.

For UGUACAUA (ssRNA) [BoxB], the Kd (Pum-HD [1]) was 2 ± 2 nM, the Kd (Pum-HD [2]) was 6.6 ± 4 nM and the Kd (Pum-HD [14]) was 8.1 ± 1.7 nM.

UUGUUGUC (ssRNA) [BoxAext]: no binding (Pum-HD [4]).

UCGAAAAUUGUACAUAA (ssRNA) [NRE2 minus BoxA] gave a Kd (Pum-HD [15]) of 11 ± 0.6 nM and a Kd (Pum-HD [16]) of 10 ± 0.3 nM.

From PMC8421216 (Nucleic Acids Research, 2020)
